Test results: paper PMC5454392, “Selective BET bromodomain inhibition as an antifungal therapeutic strategy” (Nature Communications, 2017)
Numbered stars: 1 amine (or outer) side, 2 acyl side, 3 side chain; on linkers, the order of the positions; unused ones are H or OH. Square brackets hold non-standard residues; d marks the D form. Ends that are not written are not given here. Arg(Me2a) = CN(C)C(=N)NCCC[C@H](N)C(=O)O; Kac = CC(=O)NCCCC[C@H](N[*:1])C(=O)[*:2]; Lys(Me3) = C[N+](C)(C)CCCC[C@H](N)C(=O)O; Arg(Me2s) = CN=C(NC)NCCC[C@H](N)C(=O)O; pT = C[C@@H](OP(=O)(O)O)[C@H](N)C(=O)O; Lys(Me2) = CN(C)CCCC[C@H](N)C(=O)O; Lys(Me) = CNCCCC[C@H](N)C(=O)O; Me2a = not defined here; me2a = not defined here

Biological target: T1, CaBdf1 BD1 (GST-tagged, wild-type) (Candida albicans (strain SC5314 / ATCC …, UniProt Q5A4W8))
T1 chain: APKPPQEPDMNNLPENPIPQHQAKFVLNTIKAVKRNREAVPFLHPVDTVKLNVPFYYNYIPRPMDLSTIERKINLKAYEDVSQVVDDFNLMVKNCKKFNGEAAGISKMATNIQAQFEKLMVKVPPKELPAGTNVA
Assay: histone peptide array (Active Motif MODified), 1 uM GST-tagged bromodomain, anti-GST detection, normalized mean intensity

Row | Binder | binding score
1 | ARTKQTARKSTGGKAPRKQ (A R T K Q T A Rme2a K S pT G G K A P R K Q) | 0.00399
2 | ARTKQTARKSTGGKAPRKQ (A R T Kme3 Q T A Rme2a Kme1 S T G G K A P R K Q) | 0.00435
3 | ARTKQTARKSTGGKAPRKQ (A R T K Q T A R Kme1 pS T G G K A P R K Q) | 0.00181
4 | ARTKQTARKSTGGKAPRKQ (A Rme2s T Kme2 Q T A Rme2s Kac S T G G K A P R K Q) | 0.0239
5 | ARTKQTARKSTGGKAPRKQ (A R T Kme1 Q T A Rme2a Kac S T G G K A P R K Q) | 0.0257
6 | ARTKQTARKSTGGKAPRKQ (A R T Kme3 Q T A Rme2a Kme2 S T G G K A P R K Q) | 0.00254
7 | A[Arg(Me2s)]TK(Me)QTARK(Me)STGGKAPRKQ | 0.0029
8 | AR(me2s)TK(me2)QTAR(me2s)K(me3)STGGKAPRKQ | 0.00218
9 | ARTKQTARKSTGGKAPRKQ (A Rme2s T Kme3 Q T A R Kme1 S T G G K A P R K Q) | 0.00471
10 | ARTKQTARKSTGGKAPRKQ (A Rme2s T Kme2 Q T A R Kme3 S T G G K A P R K Q) | 0.00145
11 | ARTKQTARKSTGGKAPRKQ (A R T K Q T A R Kme2 S T G G Kac A P R K Q) | 0.0315
12 | ARTKQTARKSTGGKAPRKQ (A Rme2s T Kac Q T A Rme2s K S T G G K A P R K Q) | 0.00363
13 | ARTKQTARKSTGGKAPRKQ (A R T Kme2 Q T A Rme2s Kme2 S T G G K A P R K Q) | 0.00218
14 | ARTKQTARKSTGGKAPRKQ (A Rme2s T Kme3 Q T A Rme2s K S T G G K A P R K Q) | 0.0029
15 | A[Arg(Me2a)]TK(Ac)QTA[Arg(Me2a)][Lys(Me3)]STGGKAPRKQ | 0.00834
16 | AR(Me2s)TK(Me3)QTAR(Me2s)K(Ac)STGGKAPRKQ | 0.017
17 | ARTKQTARKSTGGKAPRKQ (A Rme2s T Kme3 Q T A Rme2a Kme2 S T G G K A P R K Q) | 0.0029
18 | ARTKQTARKSTGGKAPRKQ (A R T K Q T A R Kac S pT G G K A P R K Q) | 0.00544
19 | A[Arg(Me2s)]T[Lys(Me)]QTA[Arg(Me2a)][Lys(Me2)]STGGKAPRKQ | 0.00471
20 | ARTKQTARKSTGGKAPRKQ (A Rme2s T Kme1 Q T A Rme2s K S T G G K A P R K Q) | 0.00326
21 | AR(me2a)TK(Me)QTARKSTGGKAPRKQ (reading uncertain) | 0.0029

Row | Binder | binding score
22 | ARTKQTARKSTGGKAPRKQ (A Rme2a T Kac Q T A Rme2s Kac S T G G K A P R K Q) | 0.0334
23 | ARTKQTARKSTGGKAPRKQ (A R T Kme1 Q T A Rme2s Kme2 S T G G K A P R K Q) | 0.00471
24 | A[Arg(Me2a)]T[Lys(Me)]QTA[Arg(Me2a)][Lys(Me2)]STGGKAPRKQ | 0.0029
25 | ARTKQTARKSTGGKAPRKQ (A Rme2s T Kme3 Q T A Rme2s Kme1 S T G G K A P R K Q) | 0.00363
26 | ARTKQTARKSTGGKAPRKQ (A R T K Q T A Rme2a Kac S pT G G K A P R K Q) | 0.00363
27 | ARTKQTARKSTGGKAPRKQ (A Rme2s T Kme3 Q T A R Kme3 S T G G K A P R K Q) | 0.00254
28 | AR(me2s)TK(Ac)QTAR(me2a)K(me2)STGGKAPRKQ (reading uncertain) | 0.00979
29 | ARTKQTARKSTGGKAPRKQ (A R T Kac Q T A Rme2s Kme1 S T G G K A P R K Q) | 0.00508
30 | ARTKQTARKSTGGKAPRKQ (A R T K Q T A Rme2a Kac pS pT G G K A P R K Q) | 0.00616
31 | ARTKQTARKSTGGKAPRKQ (A Rme2s T Kme1 Q T A Rme2s Kme1 S T G G K A P R K Q) | 0.00326
32 | A[Arg(Me2s)]T[Lys(Me2)]QTAR[Lys(Me)]STGGKAPRKQ | 0.00544
33 | ARTKQTARKSTGGKAPRKQ (A Rme2a T Kme2 Q T A Rme2a K S T G G K A P R K Q) | 0.00508
34 | ARTKQTARKSTGGKAPRKQ (A R T K Q T A Rme2a Kme2 S T G G K A P R K Q) | 0.0029
35 | ARTKQTARKSTGGKAPRKQ (A Rme2a T Kme3 Q T A Rme2a K S T G G K A P R K Q) | 0.00363
36 | ARTK(me2)QTAR(me2s)K(me3)STGGKAPRKQ | 0.0029
37 | ARTKQTARKSTGGKAPRKQ (A R T Kme1 Q T A Rme2s Kac S T G G K A P R K Q) | 0.0305
38 | ARTKQTARKSTGGKAPRKQ (A R T Kme3 Q T A Rme2s Kme1 S T G G K A P R K Q) | 0.00471
39 | ARTK(me2)QTAR(me2s)K(Me)STGGKAPRKQ | 0.00544
40 | ARTKQTARKSTGGK(Ac)APRKQ | 0.0319
41 | ARTK(Ac)QTAR(me2s)K(Ac)STGGKAPRKQ | 0.0729
42 | AR(Me2s)TK(Me3)QTAR(Me2s)K(Me3)STGGKAPRKQ | 0.00653

Row | Binder | binding score
43 | ARTK(me3)QTAR(me2a)K(me3)STGGKAPRKQ (reading uncertain) | 0.00508
44 | ARTKQTARKSTGGKAPRKQ (A Rme2a T Kme3 Q T A Rme2s Kme3 S T G G K A P R K Q) | 0.00508
45 | A[Arg(Me2s)]T[Lys(Me2)]QTA[Arg(Me2a)][Kac]STGGKAPRKQ | 0.0402
46 | ARTKQTARKSTGGKAPRKQ (A Rme2s T Kme2 Q T A Rme2a Kme3 S T G G K A P R K Q) | 0.00508
47 | ARTKQTARKSTGGKAPRKQ (A R T K Q T A R Kme3 S T G G Kac A P R K Q) | 0.0225
48 | AR(Me2a)[pT]KQTARKSTGGKAPRKQ (reading uncertain) | 0.00181
49 | ARTK(Me2)QTAR(Me2a)K(Me3)STGGKAPRKQ (reading uncertain) | 0.00181
50 | ARTKQTARKSTGGKAPRKQ (A Rme2a T Kme2 Q T A Rme2a Kac S T G G K A P R K Q) | 0.0395
51 | ARTKQTARKSTGGKAPRKQ (A Rme2a T Kme2 Q T A R Kac S T G G K A P R K Q) | 0.0337
52 | A[Arg(Me2s)]T[Lys(Me3)]QTA[Arg(Me2a)][Lys(Me3)]STGGKAPRKQ | 0.00363
53 | ARTKQTARKSTGGKAPRKQ (A Rme2a T Kme2 Q T A Rme2a Kme3 S T G G K A P R K Q) | 0.00254
54 | ARTKQTARKSTGGKAPRKQ (A Rme2a T Kme1 Q T A Rme2a Kme3 S T G G K A P R K Q) | 0.00435
55 | A[Arg(Me2a)]T[Lys(Me3)]QTA[Arg(Me2a)][Lys(Me2)]STGGKAPRKQ | 0.00254
56 | ARTK(Me)QTAR(Me2a)K(Me2)STGGKAPRKQ (reading uncertain) | 0.0138
57 | ARTKQTARKSTGGKAPRKQ (A Rme2s T Kme1 Q T A Rme2a Kac S T G G K A P R K Q) | 0.0381
58 | ARTKQTARKSTGGKAPRKQ (A R T K Q T A Rme2a Kme2 S pT G G K A P R K Q) | 0.00435
59 | A[Arg(Me2a)]T[Lys(Me3)]QTAR[Kac]STGGKAPRKQ | 0.0344
60 | AR(Me2a)TK(Me2)QTAR(Me2s)K(Me3)STGGKAPRKQ (reading uncertain) | 0.00145
61 | ARTKQTARKSTGGKAPRKQ (A R T Kme3 Q T A Rme2s Kac S T G G K A P R K Q) | 0.0286
